In patent US20120034672A1, “[…] LUCIFERASE VARIANT WITH PROLONGED BIOLUMINESCENCE” (priority 2009, published 2012):
“Also recorded” adds a separate entry of the source.

What was measured:
[1] = Luminescence activities of MLuc and its variants; type: cell-based; settings: for luminescence stability of MLuc variants: measured every 0.5 seconds
Method: These variants were individually introduced in equal amounts into living cells, and their relative luminescence spectra were measured. […] In order to examine the luminescence stability of the variants produced in the present invention, temporal changes in the luminescence intensity after the introduction of the substrate were measured every 0.5 seconds (FIG. 15B). […] Further, in order to examine the long-wavelength luminescence intensities of the variants, the luminescence intensities of the variants were measured using a 610 nm long-pass filter. […] Results similar to the above tendency were obtained from the measurement of the luminescence intensities before and after the introduction of the substrate (FIG. 15D).

[2] = Luminescence activities of MpLuc1 and its variants; type: cell-based; settings: for luminescence stability compared with MpLuc1: microplate reader
Method: These variants were individually introduced in equal amounts into living cells, and their relative luminescence intensities were measured.

[3] = Area of luminescence spectrum of GLuc variants (20-minute lysis, luminescence plate reader); type: biochemical; settings: for bioluminescence intensity higher than GLuc (area ratio): plate reader; for bioluminescence intensity (area of spectrum), in words: versus original GLuc
Method: In this case, a protocol for immersing the lysate samples in lysis solution for 20 minutes was employed (uniformed cell lysates even whose organelles are lysed). The area of the luminescence spectrum measured by a luminescence plate reader was used as the index of the luminescence intensity.

[4] = system: BALE/c nude mice; assay: In vivo imaging of transplanted COS-7 cells expressing GLuc or 8990; settings: subcutaneous COS-7 cells, coelenterazine injected; listed as 8990
Method: Subsequently, both of these transformed cells were transplanted into subcutaneous tissues of the back on the left and right sides of BALE/c nude mice (5-week-old female). After waiting 12 hours to allow stabilization of the transplanted cells, an equal amount of substrate (coelenterazine) was injected. Subsequently, the developed bioluminescence intensities were compared (FIG. 16A).

[5] = Temporal changes in bioluminescence intensity after substrate introduction (stability); settings: for bioluminescence stability and strength: substrate in modified Matthew's buffer; for bioluminescence stability, short time: 5 seconds; for bioluminescence stability, short time / bioluminescence stability, long time: substrate in PBS buffer; for bioluminescence stability, long time: 10 minutes
Method: First, a gene encoding each GLuc variant was cloned into pcDNA 3.1(+), and the same amount of plasmid was introduced into COS-7 cells. The cells were collected 16 hours after the introduction, lysed in cell lysate, and then transferred to a microplate reader. PBS buffer in which coelenterazine is dissolved was set to a substrate injector of the plate reader. At the measurement, after the substrate was automatically injected into each well, changes in the luminescence intensities were measured every 0.05 seconds.
Note that the composition of the modified Matthew's buffer contains the following components: • 100 mM potassium phosphate, 500 mM sodium chloride, 1 mM ethylenediaminetetraacetic acid (EDTA), 0.15 mg/ml porcine gelatin, pH 5.0, 1% Nonyiphenol ethoxylates (Tergitol NP-9) and 1% Antifoam, 25 mM thiourea, and 0.1% DMSO.

[6] = Luminescence spectrum of GLuc variants in COS-7 cell lysates (5-minute lysis, spectrophotometer); type: biochemical; settings: for luminescence intensity higher than GLuc (peak of luminescence spectrum): COS-7 lysate, coelenterazine; for luminance (peak of luminescence spectrum), in words: versus original GLuc
Method: Subsequently, cell lysates were prepared from the COS-7 cells in each well (5-minute lysis), and a spectrum was measured in the presence of a luciferase-specific substrate (coelenterazine), using a fluorescence spectrophotometer (F-7000, Hitachi), thereby examining the effect of the introduced mutation. FIGS. 4B-1 and 4C show the results.
Additionally, in the preparation of cell samples, the samples are immersed in a lysis solution for 5 minutes. This allows preparation of non-uniform samples of cells whose organelles are not lysed, by a quick process.

B1: MLuc4: Y122W/I123L/H128E/Y130W variant of MLuc (protein)
chain: MDIKVVFTLVFSALVQAKSTEFDPNIDIVGLEGKFGITNLETDLFTIWETMEVMIKADIADTDRASNFVATETDANRGKMPGKKLPLAVIMEMEANAFKAGCTRGCLICLSKIKCTAKMKVWLPGRCEDWGGDKKTGQAGIVGAIVDIPEISGFKEMAPMEQFIAQVDRCASCTTGCLKGLANVKCSELLKKWLPDRCASFADKIQKEVHNIKGMAGDR
modifications: MLuc mutant (Y122W/I123L/H128E/Y130W); MLuc4
notes: Y122W/I123L/H128E/Y130W variant of MLuc
- luminescence stability of MLuc variants [1]: most stable bioluminescence
- luminescence stability of MLuc variants ([1]; listed as Mluc4): more stable bioluminescence

B2: I123L: MLuc with I123L mutation introduced; corresponds to I90 of GLuc (protein)
chain: MDIKVVFTLVFSALVQAKSTEFDPNIDIVGLEGKFGITNLETDLFTIWETMEVMIKADIADTDRASNFVATETDANRGKMPGKKLPLAVIMEMEANAFKAGCTRGCLICLSKIKCTAKMKVYLPGRCHDYGGDKKTGQAGIVGAIVDIPEISGFKEMAPMEQFIAQVDRCASCTTGCLKGLANVKCSELLKKWLPDRCASFADKIQKEVHNIKGMAGDR
modifications: MLuc mutant (I123L)
- long-wavelength luminescence intensity ([1]; 610 nm long-pass filter): strong bioluminescence in the red wavelength
- luminescence intensity compared to original MLuc ([1]; luminescence spectrum): increased

B3: MpLuc4: Y113W/I114L/H119E/Y121W variant of MpLuc1 (protein)
chain: MMEIQVLFALICFALVQANPTENKDDIDIVGVEGKFGTTDLETDLFTIVEDMNVISRDTNLANSDADRGKMPGKKLPLEVLIEMEANARKAGCTRGCLICLSKIKCTAKMKVWLPGRCEDWGGDKKTGQAGIVGAIVDIPEISGFKELGPMEQFIAQVDLCADCTTGCLKGLANVKCSALLKKWLPDRCASFADKIQSEVDNIKGLAGDR
modifications: MpLuc1 mutant (Y113W/I114L/H119E/Y121W); MpLuc4
notes: Y113W/I114L/H119E/Y121W variant of MpLuc1
- initial luminescence intensity sustained ([2]; 10 seconds after introduction of substrate): 60%
- luminescence stability compared with MpLuc1 [2]: more stable bioluminescences

B4: F89W/I90L: GLuc with isoleucine 90 replaced with leucine and phenylalanine 89 with tryptophan (protein)
chain: MGVKVLFALICIAVAEAKPTENNEDFNIVAVASNFATTDLDADRGKLPGKKLPLEVLKEMEANARKAGCTRGCLICLSHIKCTPKMKKWLPGRCHTYEGDKESAQGGIGEAIVDIPEIPGFKDLEPMEQFIAQVDLCVDCTTGCLKGLANVQCSDLLKKWLPQRCATFASKIQGQVDKIKGAGGDKDEL
modifications: GLuc mutant (F89W/I90L); named 8990
- bioluminescence intensity higher than GLuc (area ratio) [3]: 10.2 times
- bioluminescence intensity (area of spectrum), in words [3]: particularly high bioluminescence intensity
- bioluminescence at transplantation site versus GLuc [4]: stronger bioluminescence
- bioluminescence stability and strength [5]: very stable and strong bioluminescence

B5: I108V: GLuc variant, position 108 replaced with valine (protein)
chain: MGVKVLFALICIAVAEAKPTENNEDFNIVAVASNFATTDLDADRGKLPGKKLPLEVLKEMEANARKAGCTRGCLICLSHIKCTPKMKKFIPGRCHTYEGNKESAQGGVGEAIVDIPEIPGFKDLEPMEQFIAQVDLCVDCTTGCLKGLANVQCSDLLKKWLPQRCATFASKIQGQVDKIKGAGGDKDEL
modifications: GLuc mutant (I108V)
- luminescence intensity higher than GLuc (peak of luminescence spectrum) [6]: 6.7 times
- luminance (peak of luminescence spectrum), in words [6]: particularly high luminance

B6: I90L/I115L: GLuc with isoleucine at positions 90 and 115 replaced with leucine (protein)
chain: MGVKVLFALICIAVAEAKPTENNEDFNIVAVASNFATTDLDADRGKLPGKKLPLEVLKEMEANARKAGCTRGCLICLSHIKCTPKMKKFLPGRCHTYEGDKESAQGGIGEAIVDLPEIPGFKDLEPMEQFIAQVDLCVDCTTGCLKGLANVQCSDLLKKWLPQRCATFASKIQGQVDKIKGAGGDKDEL
modifications: GLuc mutant (I90L/I115L)
- bioluminescence intensity higher than GLuc (area ratio) [3]: 4.9 times
- bioluminescence intensity (area of spectrum), in words [3]: particularly high bioluminescence intensity
- bioluminescence stability and strength [5]: very stable and strong bioluminescence

B7: F89W: GLuc variant, F at position 89 replaced with W (protein)
chain: MGVKVLFALICIAVAEAKPTENNEDFNIVAVASNFATTDLDADRGKLPGKKLPLEVLKEMEANARKAGCTRGCLICLSHIKCTPKMKKWIPGRCHTYEGDKESAQGGIGEAIVDIPEIPGFKDLEPMEQFIAQVDLCVDCTTGCLKGLANVQCSDLLKKWLPQRCATFASKIQGQVDKIKGAGGDKDEL
modifications: GLuc mutant (F89W)
- luminescence intensity higher than GLuc (peak of luminescence spectrum) [6]: 9 times
- luminance (peak of luminescence spectrum), in words [6]: particularly high luminance
- bioluminescence stability, short time [5]: relatively unstable luminescence intensity
- bioluminescence stability, long time [5]: relatively unstable
- decrease of bioluminescence intensity ([5]; within 10 minutes after introduction of substrate): about 60%

B8: I90V: GLuc variant, isoleucine at position 90 mutated to valine (protein)
chain: MGVKVLFALICIAVAEAKPTENNEDFNIVAVASNFATTDLDADRGKLPGKKLPLEVLKEMEANARKAGCTRGCLICLSHIKCTPKMKKFVPGRCHTYEGNKESAQGGIGEAIVDIPEIPGFKDLEPMEQFIAQVDLCVDCTTGCLKGLANVQCSDLLKKWLPQRCATFASKIQGQVDKIKGAGGDKDEL
modifications: GLuc mutant (I90V)
- luminance (peak of luminescence spectrum), in words [6]: particularly high luminance
- bioluminescence stability, long time [5]: relatively stable

B9: Y97W: GLuc variant in which tyrosine (Y) at position 97 was mutated to tryptophan (W) (protein)
chain: MGVKVLFALICIAVAEAKPTENNEDFNIVAVASNFATTDLDADRGKLPGKKLPLEVLKEMEANARKAGCTRGCLICLSHIKCTPKMKKFIPGRCHTWEGDKESAQGGIGEAIVDIPEIPGFKDLEPMEQFIAQVDLCVDCTTGCLKGLANVQCSDLLKKWLPQRCATFASKIQGQVDKIKGAGGDKDEL
modifications: GLuc mutant (Y97W)
- bioluminescence intensity higher than GLuc (area ratio) [3]: 2.1 times
- bioluminescence intensity (area of spectrum), in words [3]: particularly high bioluminescence intensity
- bioluminescence stability, short time [5]: stable luminescence intensities; also recorded: relatively stable bioluminescences

B10: H95E: GLuc variant, histidine at position 95 replaced with glutamic acid (protein)
chain: MGVKVLFALICIAVAEAKPTENNEDFNIVAVASNFATTDLDADRGKLPGKKLPLEVLKEMEANARKAGCTRGCLICLSHIKCTPKMKKFIPGRCETYEGDKESAQGGIGEAIVDIPEIPGFKDLEPMEQFIAQVDLCVDCTTGCLKGLANVQCSDLLKKWLPQRCATFASKIQGQVDKIKGAGGDKDEL
modifications: GLuc mutant (H95E)
- bioluminescence intensity higher than GLuc (area ratio) [3]: 3.0 times
- bioluminescence intensity (area of spectrum), in words [3]: particularly high bioluminescence intensity

B11: I118V: GLuc variant, position 118 replaced with valine (protein)
chain: MGVKVLFALICIAVAEAKPTENNEDFNIVAVASNFATTDLDADRGKLPGKKLPLEVLKEMEANARKAGCTRGCLICLSHIKCTPKMKKFIPGRCHTYEGNKESAQGGIGEAIVDIPEVPGFKDLEPMEQFIAQVDLCVDCTTGCLKGLANVQCSDLLKKWLPQRCATFASKIQGQVDKIKGAGGDKDEL
modifications: GLuc mutant (I118V)
- luminance (peak of luminescence spectrum), in words [6]: particularly high luminance

B12: I114L: MpLuc1 with a mutation introduced into I114; corresponds to I90 of GLuc (protein)
chain: MMEIQVLFALICFALVQANPTENKDDIDIVGVEGKFGTTDLETDLFTIVEDMNVISRDTNLANSDADRGKMPGKKLPLEVLIEMEANARKAGCTRGCLICLSKIKCTAKMKVYLPGRCHDYGGDKKTGQAGIVGAIVDIPEISGFKELGPMEQFIAQVDLCADCTTGCLKGLANVKCSALLKKWLPDRCASFADKIQSEVDNIKGLAGDRKDEL
modifications: MpLuc1 mutant (I114L)
- luminescence intensity compared to original MpLuc1 ([2]; luminescence spectrum): higher luminescence intensity
- luminescence stability compared with MpLuc1 [2]: more stable bioluminescences
